Experiment [1] concerns the target T1, human SIRPβ1-Fc isoform 3 (Q5TFQ8) (human, UniProt Q5TFQ8 30-371, limits assumed).
T1 construct: Whole entry named; made in HEK293 cells; also called human SIRPβ1 isoform 3
The experiment is described as follows: ELISA on plate-coated huSirpB-Fc (Q5TFQ8.1), anti-human kappa-HRP, A450.
Excerpt: Among the multiple SIRPβ1 isoforms catalogued, isoform 1 is the full-length version of the receptor primarily expressed in the periphery. Recombinant antigen based on the sequence of SIRPβ1 isoform 1 was used for selecting anti-SIRPβ1 antibodies from yeast library pools. To ascertain if the selected anti-SIRPβ1 antibodies cross-reacted with other isoforms of human SIRPβ1 or with cynomolgus SIRPβ1, recombinant antigens based on human SIRPβ1 isoform 3 sequence and cynomolgus SIRPβ1 isoform 1 sequence were produced by transient transfection in HEK293 cells. Purified, Fc-tagged recombinant proteins were adsorbed onto 96-well plates at 1 μg/mL overnight at 4° C. Plates were subsequently washed with PBS+0.05% Tween-20 and blocked with 1% BSA+PBS for 2 hours at room temperature. Antibodies diluted in blocking buffer at 1 μg/mL were added to wells, serially diluted, and allowed to bind antigen overnight at 4° C. The following day, the primary antibodies were removed and anti-human kappa light chain antibody conjugated to horseradish peroxidase diluted 1:10,000 in blocking buffer were added to wells and incubated for 1 hour at room temperature. Plates were washed with PBS+0.05% Tween-20 and 100 μL of TMB substrate solution was added to wells to generate a colorimetric signal proportional to amount of anti-SIRPβ1 antibody bound to antigen. […]

Experiment [2] concerns the target T2, human SIRPα on cells (human, UniProt P78324 31-504).
T2 construct: Whole entry
The experiment is described as follows: flow cytometry.

For experiment [3], the target named is T3, mouse SIRPα on cells (mouse, UniProt P97797 32-513).
T3 construct: whole, on cells
T3 sequence (looked up): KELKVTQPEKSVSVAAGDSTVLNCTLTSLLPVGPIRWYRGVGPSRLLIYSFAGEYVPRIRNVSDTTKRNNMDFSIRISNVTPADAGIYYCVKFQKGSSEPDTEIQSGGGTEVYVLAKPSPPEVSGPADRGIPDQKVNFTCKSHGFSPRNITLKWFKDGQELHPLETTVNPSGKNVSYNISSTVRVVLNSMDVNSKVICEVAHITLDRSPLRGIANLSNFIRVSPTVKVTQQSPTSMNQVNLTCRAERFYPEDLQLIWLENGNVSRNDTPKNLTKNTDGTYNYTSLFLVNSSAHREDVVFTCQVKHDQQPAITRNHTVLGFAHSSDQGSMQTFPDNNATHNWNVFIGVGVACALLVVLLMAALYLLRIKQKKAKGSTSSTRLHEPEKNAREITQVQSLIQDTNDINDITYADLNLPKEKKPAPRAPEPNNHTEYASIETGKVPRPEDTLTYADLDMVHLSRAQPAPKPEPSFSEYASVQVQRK
The experiment is described as follows: flow cytometry.

Experiment [4] deals with T4, mouse SIRPβ1 on CHO cells (mouse).
T4 construct: Whole entry
T4 chain: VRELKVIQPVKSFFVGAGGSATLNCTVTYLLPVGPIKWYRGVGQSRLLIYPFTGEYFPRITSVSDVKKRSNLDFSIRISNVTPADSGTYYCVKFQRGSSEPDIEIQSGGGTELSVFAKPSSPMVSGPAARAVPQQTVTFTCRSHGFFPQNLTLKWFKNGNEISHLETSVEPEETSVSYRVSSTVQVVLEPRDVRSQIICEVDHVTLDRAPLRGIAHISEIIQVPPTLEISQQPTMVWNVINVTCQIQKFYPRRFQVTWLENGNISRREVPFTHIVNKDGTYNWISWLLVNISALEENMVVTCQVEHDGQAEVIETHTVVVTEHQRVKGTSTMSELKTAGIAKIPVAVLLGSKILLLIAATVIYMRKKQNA
The experiment is described as follows: flow cytometry.

Experiment [5] deals with T5, human SIRPβ1 isoform 1 on cells (human, UniProt O00241 30-398).
T5 construct: On CHO cells (low level), on BWZ/BW5147.G.1.4 cells (reporter cells co-express human DAP12) or on primary human myeloid cells; also called huSIRPβ1; BWZ-huSIRPβ1
T5 sequence (O00241 30-398): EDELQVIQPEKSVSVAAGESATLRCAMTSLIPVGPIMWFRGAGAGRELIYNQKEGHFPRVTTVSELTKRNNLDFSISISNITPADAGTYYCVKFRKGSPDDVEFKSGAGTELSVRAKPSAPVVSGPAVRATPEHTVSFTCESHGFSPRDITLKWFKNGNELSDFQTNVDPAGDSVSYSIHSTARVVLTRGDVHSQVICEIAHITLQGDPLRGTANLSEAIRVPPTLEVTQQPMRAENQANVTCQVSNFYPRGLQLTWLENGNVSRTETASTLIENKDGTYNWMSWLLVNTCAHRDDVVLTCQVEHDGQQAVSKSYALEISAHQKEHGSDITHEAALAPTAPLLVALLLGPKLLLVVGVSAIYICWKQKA
The experiment is described as follows: flow cytometry.

Experiment [6] has as its target T6, human SIRPβ1 domain 1 (D1) Fc fusion (human, UniProt O00241 30-148).
T6 construct: Made in HEK293/T cells with a heterologous signal peptide; also called Human SIRPβ1 D1-Fc; Human SIRPβ1-Fc; not shown: C-terminal human IgG1 Fc
The experiment in a line: Octet, IgG avid.

For experiment [7], the target named is T7, Soluble, human SIRPβ1-Fc isoform 1 (O00241) (human, UniProt O00241 30-371, limits assumed).
T7 construct: Whole entry named; also called human SIRPβ1 isoform 1
T7 sequence (O00241 30-371 limits assumed, one chain of several): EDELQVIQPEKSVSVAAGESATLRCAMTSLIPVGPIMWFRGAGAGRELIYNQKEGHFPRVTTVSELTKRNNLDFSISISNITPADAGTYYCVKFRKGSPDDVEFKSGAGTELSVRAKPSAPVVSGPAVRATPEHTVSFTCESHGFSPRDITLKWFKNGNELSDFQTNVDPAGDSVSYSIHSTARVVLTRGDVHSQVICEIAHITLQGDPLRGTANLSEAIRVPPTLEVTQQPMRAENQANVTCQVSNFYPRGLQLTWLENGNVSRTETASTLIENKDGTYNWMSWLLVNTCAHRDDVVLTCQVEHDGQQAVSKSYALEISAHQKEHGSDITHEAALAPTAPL
The experiment in a line: ELISA, antigen coated.
Excerpt: Recombinant antigen based on the sequence of SIRPβ1 isoform 1 was used for selecting anti-SIRPβ1 antibodies from yeast library pools. To ascertain if the selected anti-SIRPβ1 antibodies cross-reacted with other isoforms of human SIRPβ1 or with cynomolgus SIRPβ1, recombinant antigens based on human SIRPβ1 isoform 3 sequence and cynomolgus SIRPβ1 isoform 1 sequence were produced by transient transfection in HEK293 cells. Purified, Fc-tagged recombinant proteins were adsorbed onto 96-well plates at 1 μg/mL overnight at 4° C. Plates were subsequently washed with PBS+0.05% Tween-20 and blocked with 1% BSA+PBS for 2 hours at room temperature. Antibodies diluted in blocking buffer at 1 μg/mL were added to wells, serially diluted, and allowed to bind antigen overnight at 4° C. The following day, the primary antibodies were removed and anti-human kappa light chain antibody conjugated to horseradish peroxidase diluted 1:10,000 in blocking buffer were added to wells and incubated for 1 hour at room temperature. Plates were washed with PBS+0.05% Tween-20 and 100 μL of TMB substrate solution was added to wells to generate a colorimetric signal proportional to amount of anti-SIRPβ1 antibody bound to antigen. Once the reaction reached an appropriate color intensity, 100 μL of Stop solution was added to quench the enzyme.
(§1) Eight anti-SIRPβ1 antibodies (four parental antibodies and four corresponding affinity matured antibodies) were selected for analysis.

The target in experiment [8] is T8, mouse SIRPα D1-Fc (mouse, UniProt P97797 32-150, limits assumed).
T8 construct: domain: D1
T8 sequence (looked up): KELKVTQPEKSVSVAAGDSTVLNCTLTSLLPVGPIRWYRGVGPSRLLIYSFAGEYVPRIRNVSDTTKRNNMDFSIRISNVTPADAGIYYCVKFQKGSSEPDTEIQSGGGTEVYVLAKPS
The experiment is described as follows: Octet.

Experiment [9] concerns the target T2, human SIRPα on cells. The experiment in a line: flow cytometry. This is another data set of the same source.
Experiment [10] concerns the target T4, mouse SIRPβ1 on CHO cells. The experiment in a line: flow cytometry.
The target of experiment [11] is T5, human SIRPβ1 isoform 1 on cells. The experiment is described as follows: flow cytometry. This is another data set of the same source.
Experiment [12] deals with T9, human SIRPα domain 1 (D1) Fc fusion (human, UniProt P78324 32-149).
T9 construct: also called human SIRPα D1-Fc; Human SIRPα Fc; not shown: C-terminal human IgG1 Fc
The experiment is described as follows: Octet, IgG avid.

Experiment [13] concerns the target T5, human SIRPβ1 isoform 1 on cells. The experiment in a line: cell binding titration; target not given.
The target in experiment [14] is T2, human SIRPα on cells. The experiment is described as follows: flow cytometry. This is another data set of the same source.
The target in experiment [15] is T3, mouse SIRPα on cells. The experiment is described as follows: flow cytometry. This is another data set of the same source.
Experiment [16] deals with T4, mouse SIRPβ1 on CHO cells. The experiment in a line: flow cytometry.
In experiment [17] the target is T1, human SIRPβ1-Fc isoform 3 (Q5TFQ8). The experiment is described as follows: ELISA on plate-coated huSirpB-Fc (Q5TFQ8.1), anti-human kappa-HRP, A450. This is another data set of the same source.
Description: To ascertain if the selected anti-SIRPβ1 antibodies cross-reacted with other isoforms of human SIRPβ1 or with cynomolgus SIRPβ1, recombinant antigens based on human SIRPβ1 isoform 3 sequence and cynomolgus SIRPβ1 isoform 1 sequence were produced by transient transfection in HEK293 cells. Purified, Fc-tagged recombinant proteins were adsorbed onto 96-well plates at 1 μg/mL overnight at 4° C. Plates were subsequently washed with PBS+0.05% Tween-20 and blocked with 1% BSA+PBS for 2 hours at room temperature. Antibodies diluted in blocking buffer at 1 μg/mL were added to wells, serially diluted, and allowed to bind antigen overnight at 4° C. The following day, the primary antibodies were removed and anti-human kappa light chain antibody conjugated to horseradish peroxidase diluted 1:10,000 in blocking buffer were added to wells and incubated for 1 hour at room temperature. Plates were washed with PBS+0.05% Tween-20 and 100 μL of TMB substrate solution was added to wells to generate a colorimetric signal proportional to amount of anti-SIRPβ1 antibody bound to antigen. Once the reaction reached an appropriate color intensity, 100 μL of Stop solution was added to quench the enzyme.
as §1
Experiment [18] concerns the target T5, human SIRPβ1 isoform 1 on cells. The experiment in a line: cell-based or functional assay.
For experiment [19], the target named is T10, Human SIRPβ HIS (human, UniProt O00241 30-148, limits assumed).
T10 construct: detected with streptavidin, so biotinylated; also called recombinant human SIRPβ1; human SIRPβ1 monomer
T10 sequence (O00241 30-148 limits assumed): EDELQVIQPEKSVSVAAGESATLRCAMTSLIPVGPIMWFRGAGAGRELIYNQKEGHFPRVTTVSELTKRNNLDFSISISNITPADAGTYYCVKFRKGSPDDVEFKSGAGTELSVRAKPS
The experiment is described as follows: MSD-SET, Fab monovalent.

Experiment [20] addresses T6, human SIRPβ1 domain 1 (D1) Fc fusion. The experiment in a line: Octet, Fab monovalent.
Description: Briefly, Octet® affinity measurements were performed by loading IgGs on-line onto AHQ sensors. Sensors were equilibrated off-line in assay buffer for 30 min and then monitored on-line for 60 seconds for baseline establishment. For avid binding measurement, sensors with loaded IgGs were exposed to 100 nM antigen (human SIRPα or SIRPβ1 Fc fusion) for 3 min, and then transferred to assay buffer for 3 min for off-rate measurement. Additional avid binding was determined by loading biotinylated SIRPβ1 monomer on SA sensors and exposuring to 100 nM IgG in solution. Monovalent binding measurements were obtained by loading human SIRPβ1 Fc fusion antigens to AHQ sensor, followed by exposure to 100 nM anti-SIRPβ1 antibody Fab. Additional monovalent measurements were made by loading biotinylated human SIRPβ1 monomer to SA sensor followed by exposure to 100 nM Fab in solution. Kinetics data were fit using a 1:1 binding model in the data analysis software provided by ForteBio.

Changes are numbered by the printed parent chain. Where two headings read alike, the source gives them in different places.

T6 sequence (O00241 30-148 limits assumed): as above
T1 sequence (Q5TFQ8 30-371 limits assumed, one chain of several): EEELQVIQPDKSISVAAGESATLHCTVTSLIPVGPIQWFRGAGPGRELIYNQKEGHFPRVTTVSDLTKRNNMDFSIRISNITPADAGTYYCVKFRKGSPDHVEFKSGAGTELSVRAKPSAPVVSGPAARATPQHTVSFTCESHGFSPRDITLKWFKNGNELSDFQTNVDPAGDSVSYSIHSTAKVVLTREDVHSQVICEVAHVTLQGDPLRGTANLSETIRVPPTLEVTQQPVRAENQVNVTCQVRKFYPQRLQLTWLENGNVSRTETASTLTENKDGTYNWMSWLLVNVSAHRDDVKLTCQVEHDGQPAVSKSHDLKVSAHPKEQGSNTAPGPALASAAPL

B1: SB-40 (antibody, V domains shown)
VH: QVQLVQSGAEVKKPGASVKVSCKASGYTFTSYYMSWVRQAPGQGLEWMGIINPSGGSTSYAQKFQGRVTMTRDTSTSTVYMELSSLRSEDTAVYYCARDTGEYSYSPHGMDVWGQGTTVTVSS
VL: EIVLTQSPATLSLSPGERATLSCRASQSVSSYLAWYQQKPGQAPRLLIYDSSNRATGIPARFSGSGSGTDFTLTISSLEPEDFAVYYCQQRDEHPPWTFGGGTKVEIK
notes: IgG; also called SB-40 (p)
B1: the binding result in experiment [1] is “no binding (tested: 1 ug/mL)”; in experiment [8] it was “no binding (tested: 100 nM)”; in [12] it was “no binding (tested: 100 nM)”; in [14], “no binding (tested: 1 ug/ml)”; in experiment [15] it was “no binding (tested: 1 ug/ml)”; in [16], “no binding (tested: 1 ug/ml)”. Also, the FOB was 2.5 fold over background in experiment [2]; 1.2 fold over background in [3]; 1.1 fold over background in experiment [4]; 7 fold over background in [5]; 1 fold over background in experiment [9]; 1 fold over background in [10]. Further, the FOB in experiment [11] came out at 2 fold over background. For the same molecule, the Kd in experiment [6] turned out to be 9640 pM. For the same molecule, the EC50 in experiment [7] came to 40 pM; in experiment [13] it was 707 pM.

B2: SB-2 (antibody, V domains shown)
VH: QVQLVESGGGVVQPGRSLRLSCAASGFTFSSYGMNWVRQAPGKGLEWVAVIWYDGSNKYYADSVKGRFTISRDNSKNTLYLQMNSLRAEDTAVYYCARDQTAAAAIWGMDVWGQGTTVTVSS
VL: EIVLTQSPGTLSLSPGERATLSCRASQSVSSSYLAWYQQKPGQAPRLLIYGASSRATGIPDRFSGSGSGTDFTLTISRLEPEDFAVYYCQQSSSHPFTFGGGTKVEIK
notes: IgG; also called SB-2 (p)
In the case of B2, the FOB was determined as 3 fold over background in [2]; 1.1 fold over background in [3]; 1.3 fold over background in experiment [4]; 8.7 fold over background in [5]; 1 fold over background in [9]; 1 fold over background in [10]. This molecule showed an FOB in experiment [11] of 2 fold over background. The binding result was “no binding (tested: 1 ug/mL)” in experiment [17]; “no binding (tested: 100 nM)” in [8]; “no binding (tested: 100 nM)” in experiment [12]; “no binding (tested: 1 ug/ml)” in [14]; “no binding (tested: 1 ug/ml)” in experiment [15]; “no binding (tested: 1 ug/ml)” in [16]. In addition, the “viable Raji-Luc cells with neutrophils and anti-CD20” value in experiment [18] was about 50%. This molecule gave a dissociation constant Kd in [6] of 1970 pM. Moreover, the results for the EC50 in [7] and in experiment [13] were 32 pM and 235 pM, respectively.

B3: SB-8-13 Fab (Fab, V domains shown)
VH: QVQLQESGPGLVKPSETLSLTCAVSGYSISAHYYWGWIRQPPGKGLEWIGSIFHSGHTYYNPSLKSRVTISVDTSKNQFSLKLSSVTAADTAVYYCARGGAMTPAGMDVWGQGTTVTVSS
VL: B2 VL with L4M, S54N, S92V, S93Y, H95S, F97Y
notes: Fab by papain digestion
For the molecule B3, the figures for the Kd in [19] and in experiment [20] were 63 pM and 2850 pM, respectively.

B4: SB-8-16 Fab (Fab, V domains shown)
VH: B3 VH with G99A
VL: B2 VL with L4M, S54N, S92V, S93Y, H95S, F97Y
notes: Fab by papain digestion
With B4, the Kd in experiment [19] is 55 pM; in experiment [20], 2320 pM.

B5: SB-8-15 Fab (Fab, V domains shown)
VH: B3 VH with F53Y, H54Q
VL: B2 VL with L4M, S54N, S92V, S93Y, H95S, F97Y
notes: Fab by papain digestion
B5: the Kd in experiment [19] was determined as 48 pM; in [20], 3730 pM.

B6: SB-8-14 Fab (Fab, V domains shown)
VH: B3 VH with A31P, F53Y
VL: B2 VL with L4M, S54N, S92V, S93Y, H95S, F97Y
notes: Fab by papain digestion
Regarding B6, the Kd in [19] is 53 pM; in [20] it was 3250 pM.

(Values after US20250026827A1 (Alector, published 2025).)
